Consider four sequences from PMC4132713.

Common to all, as to details: SPR: TBS (50 mM Tris-HCl, 150 mM NaCl, pH 6.8) or TBS-KCl (150 mM KCl instead of NaCl), 1-32 nM DARPin on 300-500 RU biotinylated DNA; ELISA: 100 nM …
A general note: In SPR one partner is held on a chip, and binding of the other changes the refractive index at the surface.

For series [1], the system named is DARPin 1C11 (synthetic construct). The series is described as follows: competition SPR.
Series [2] relates to DARPin 1C6 (synthetic construct). The series is described as follows: competition SPR.
For series [3], the system named is DARPin 1C7 (synthetic construct). Briefly: competition SPR.
The subject of series [4] is DARPin 1G2 (synthetic construct). The series is described as follows: competition SPR.
The test system of series [5] is DARPin 1H4 (synthetic construct). The series is described as follows: competition SPR.
Series [6] has as its system DARPin 2C10 (synthetic construct). Briefly: competition SPR.
Series [7] relates to DARPin 2D10 (synthetic construct). Briefly: competition SPR.
For series [8], the system named is DARPin 2G7 (synthetic construct). Briefly: competition SPR.
The test system of series [9] is DARPin 1C11 (synthetic construct). The series is described as follows: competition SPR. This is another data set of the same source.
In series [10] the test system is DARPin 1C7 (synthetic construct). The series is described as follows: competition SPR. The source holds these as a separate data set.
In series [11] the test system is DARPin 1G2 (synthetic construct). The series is described as follows: competition SPR. This is another data set of the same source.
Series [12] deals with DARPin 1H4 (synthetic construct). Briefly: competition SPR. The source holds these as a separate data set.
The subject of series [13] is DARPin 2C10 (synthetic construct). The series is described as follows: competition SPR. The source holds these as a separate data set.
In series [14] the test system is DARPin 2D10 (synthetic construct). Briefly: competition SPR. The source holds these as a separate data set.
Series [15] concerns DARPin 2E4 (synthetic construct). The series is described as follows: competition SPR.
Series [16] concerns DARPin 2G7 (synthetic construct). The series is described as follows: competition SPR. This is another data set of the same source.
In series [17] the test system is DARPin 1C11 (synthetic construct). Briefly: SPR.
Series [18] has as its system DARPin 1C7 (synthetic construct). Briefly: SPR.
Series [19] concerns DARPin 1G11 (synthetic construct). The series is described as follows: SPR.
Series [20] deals with DARPin 1G2 (synthetic construct). Briefly: SPR.
For series [21], the system named is DARPin 1C11 (synthetic construct). Briefly: SPR. The source holds these as a separate data set.
Series [22] relates to DARPin 1C7 (synthetic construct). Briefly: SPR. The source holds these as a separate data set.
The test system of series [23] is DARPin 1G2 (synthetic construct). Briefly: SPR. The source holds these as a separate data set.
Series [24] deals with DARPin 2G10 (synthetic construct). Briefly: SPR.
Series [25] has as its system DARPin 1C6 (synthetic construct). Briefly: SPR.
Series [26] concerns DARPin 1H4 (synthetic construct). Briefly: SPR.
The subject of series [27] is DARPin 2C10 (synthetic construct). Briefly: SPR.
For series [28], the system named is DARPin 2D10 (synthetic construct). The series is described as follows: SPR.
Series [29] concerns DARPin 2G7 (synthetic construct). The series is described as follows: SPR.
Series [30] relates to DARPin 1H4 (synthetic construct). Briefly: SPR. This is another data set of the same source.
In series [31] the test system is DARPin 2C10 (synthetic construct). Briefly: SPR. The source holds these as a separate data set.
In series [32] the test system is DARPin 2D10 (synthetic construct). Briefly: SPR. This is another data set of the same source.
The test system of series [33] is DARPin 2E4 (synthetic construct). Briefly: SPR.
For series [34], the system named is DARPin 2G7 (synthetic construct). The series is described as follows: SPR. The source holds these as a separate data set.
Series [35] relates to DARPin 2E4 (synthetic construct). The series is described as follows: SPR. This is another data set of the same source.
Series [36] has as its system DARPin 2G10 (synthetic construct). The series is described as follows: SPR. This is another data set of the same source.

Values joined by “and” are separate entries in the source; they are usually repeats but may differ in a detail not shown here. Equal values may be shown once.

As for “TTAGGGTTAGGGTTAGGGTTAGGG [tel (non-biotinylated)]”, the Kd (in general, the equilibrium constant for the complex coming apart) in series [1] was found to be 100 nM; in [2] it was 56 nM; in series [3], 110 nM; in series [4] it was 69 nM; in [5], 81 nM; in series [6], 67 nM. Moreover, the Kd in [7] worked out at 110 nM; in series [8], 32 nM; in [9], 72 nM; in series [10], 160 nM; in series [11], 3.6 nM; in [12] it was 19 nM. For the same sequence, the Kd in series [13] was 160 nM; in series [14] it was 160 nM; in [15] it was 120 nM; in series [16], 8 nM.

Turning to CAGGGGTGTGGGGACAGGGGTGTGGGGAC [ILPR], the Kd in [17] was 43 nM; in [18] it was 33 nM; in series [19] it was 44 nM; in series [20], 27 nM; in [21] it was 12 nM and 4 nM; in [22] it was 21 nM and 14 nM. For the same sequence, the Kd is 9.4 nM and 6.4 nM in series [23]; 22 nM and 19 nM in series [24].

In the case of “TTAGGGTTAGGGTTAGGGTTAGGG [tel (biotinylated)]”, the Kd in series [17] was 53 nM; in series [25], 16 nM; in series [18], 37 nM; in series [19], 72 nM; in series [20] it was 53 nM; in [26], 62 nM. The Kd in series [27] was 48 nM; in [28], 34 nM; in series [29], 20 nM; in [21], 11 nM and 8.9 nM; in [22], 15 nM and 3.3 nM; in [23] it was 7.9 nM and 3.3 nM. Moreover, the Kd in series [30] is 15 nM and 14 nM; in series [31] it was 20 nM and 35 nM; in series [32] it was 18 nM and 22 nM; in series [33], 4.6 nM and 42 nM; in [24] it was 65 nM and 15 nM; in series [34], 10 nM and 5.5 nM.

As to TGAGGGTGGGTAGGGTGGGTAA [c-MYC], the dissociation constant (Kd) in series [17] was determined as 49 nM; in series [18], 81 nM; in series [19], 19 nM; in series [20], 43 nM; in [35] it was 64 nM; in series [36] it was 90 nM. The Kd in series [21] was 17 nM and 6.8 nM; in [23] it was 16 nM and 14 nM; in series [33] it was 28 nM and 19 nM; in series [24] it was 100 nM and 15 nM.
